Measurements from patent publication US20170029474A1 (OSAKA UNIVERSITY, published 2017).
Where two headings read alike, the source gives them in different places.

How the values were obtained:
[1] = target: T1, CRM197 (Corynebacterium diphtheriae, UniProt P00587 26-560); test: SPR, Biacore T200, His-tagged HB-EGF captured on NTA chip
[2] = target: T1, CRM197; test: as above; remark: listed apart in the source

B1: C-terminal His-tagged HB-EGF lacking the heparin-binding domain (ligand)
chain: DLQEADLDLLRVTLSSKPQALATPNKEEHGDPCLRKYKDFCIHGECKYVKELRAPSCICHPGYHGERCHGLSLP
notes: Captured on a Ni2+ NTA sensor chip for Biacore; also called C-terminal His-tagged recombinant HB-EGF; Δ••-EGF-His
With B1 the Ka [1] was 9.8e+08 M⁻¹ and the Ka [2] was 9.22e+08 M⁻¹.
